For data set [1], the target named is Coagulation Factor VII (plasma) (Homo sapiens, UniProt P08709 P08709:61-466). The data set can be described thus: affinity chromatography; Ca/Mg buffer, EDTA elution. To be noted: tags: plasma FVII (98-99% pure; ACSET, LFB, in column tests); label: biotin. The method, then:
The FVII is eluted with a 20 mM Tris-HCl+10 mM EDTA buffer at pH 7.5. The elution peak is collected according to the OD profile.
In FIG. 15, the injection (1) of human plasma […] concentrate is followed rapidly by the elimination peak (2) of the fraction not retained on the affinity support. The affinity support continues to saturate with the coagulation protein of interest: complexes between (i) the anti-GLA nucleic aptamers of the affinity support and (ii) the human plasma FVII molecules initially contained in the composition to be purified were formed. After running the composition to be purified, a step of washing the column with the previously specified washing buffer is carried out. Then, the elution step is carried out by injecting the elution buffer solution comprising a final concentration of 10 mM of EDTA.

Data set [2] deals with T1, Coagulation Factor IX (recombinant) (Homo sapiens, UniProt P00740 P00740:47-461). Nature of the data set: SPR; FIX immobilized; 50 mM Tris, 10 mM CaCl2, 4 mM MgCl2, pH 7.5. To be noted: tags: BeneFIX (nonacog alfa, Wyeth); correctly gamma-carboxylated. The method, then: (§1) Each sample was injected sequentially onto the same chip (solid support) containing the immobilized human recombinant FIX. Controls are obtained by injecting blanks containing only run buffer. All the injections were carried out with a flow rate of 30 μl/min for 60 sec; after the injection, run buffer was injected onto the chip at an identical flow rate for 120 sec.
(§2) Elution buffer (10 mM EDTA) was then injected for 60 sec with a flow rate of 30 μl/min to uncouple the aptamer from the immobilized human FIX.
(§3) The chip makes it possible to observe in real time the formation and the disruption of interactions between the immobilized human recombinant FIX and each of the aptamers, having the sequences SEQ ID Nos. 3 and 6 to 35, tested, through surface plasmon resonance (SPR). Binding to the immobilized recombinant human FIX generates an increase in signal expressed in resonance units (RU) recorded by the apparatus (FIG. 6). These analyses are carried out with the Biacore T100 SPR apparatus (GE). The modeling of the recorded interactions is carried out by means of the Biaevaluation software (GE).
A general note: Surface plasmon resonance follows binding to a sensor surface in real time, without labels.

The target in data set [3] is T1, Coagulation Factor IX (recombinant). Nature of the data set: SPR; highest affinity of the 30 core aptamers; FIX immobilized; 50 mM Tris, 10 mM CaCl2, 4 mM MgCl2, pH 7.5. To be noted: tags: BeneFIX (nonacog alfa, Wyeth); correctly gamma-carboxylated. The protocol:
as §1, §2, §3

T1 sequence (P00740 47-461, one chain of several): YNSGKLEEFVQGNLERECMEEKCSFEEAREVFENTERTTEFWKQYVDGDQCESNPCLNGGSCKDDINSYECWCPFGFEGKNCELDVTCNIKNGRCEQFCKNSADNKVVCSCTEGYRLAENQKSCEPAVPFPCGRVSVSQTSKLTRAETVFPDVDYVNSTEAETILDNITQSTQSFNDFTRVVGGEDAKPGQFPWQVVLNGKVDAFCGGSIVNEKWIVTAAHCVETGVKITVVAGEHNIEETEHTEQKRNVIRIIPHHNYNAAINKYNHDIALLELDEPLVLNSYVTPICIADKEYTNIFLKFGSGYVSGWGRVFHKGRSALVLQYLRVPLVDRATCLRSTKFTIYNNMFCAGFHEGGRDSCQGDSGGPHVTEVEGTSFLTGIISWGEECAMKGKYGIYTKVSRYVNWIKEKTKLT
Sequence of Coagulation Factor VII (plasma) (P08709 61-466, one chain of several): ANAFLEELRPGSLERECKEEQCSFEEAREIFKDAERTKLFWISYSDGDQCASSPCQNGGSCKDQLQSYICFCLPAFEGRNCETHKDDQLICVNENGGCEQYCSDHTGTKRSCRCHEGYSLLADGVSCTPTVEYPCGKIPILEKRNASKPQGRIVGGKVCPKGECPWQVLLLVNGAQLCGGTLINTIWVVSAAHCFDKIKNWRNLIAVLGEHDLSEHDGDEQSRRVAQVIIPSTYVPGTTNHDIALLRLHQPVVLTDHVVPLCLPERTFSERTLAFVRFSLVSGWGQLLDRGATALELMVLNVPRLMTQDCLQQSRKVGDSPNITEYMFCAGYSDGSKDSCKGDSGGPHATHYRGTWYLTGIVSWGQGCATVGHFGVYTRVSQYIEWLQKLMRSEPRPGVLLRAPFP

As to CCGCACACCACGCGCATGACCCCGCGCACACGACTTGAAGTAGC (ssDNA) [Mapt-2-CS], in data set [1], the binding result was “binds”. For the molecule CGCACATGACTTGAAGTTAAACGCGAATTACAAACCCAGCCCCC (ssDNA) [Mapt-1 core sequence (Mapt-1-CS)], in data set [2], the binding result was “binds”. Take CGCACATGACTTGAAGTAAAACGCGAATTACAGACCAAACCCG (ssDNA) [Mapt-1.2-CS]: in data set [3], the binding result was “binds”.

(Values after patent US20120271039, “METHOD FOR PURIFYING ACTIVE GLA-DOMAIN COAGULATION PROTEINS” (LFB BIOTECHNOLOGIES, published 2012).)
